For experiment [1], the target named is HIV-1 Gag fused to the N- or C-terminal fragment of Venus (HIV-1). The experiment in a line: split reporter (BiFC, NanoBiT); Venus BiFC in 293T cells cotransfected with VC and VN chimeric Vpr and Gag plasmids; fixed thirty-six hours after transfection; percent BiFC positive cells by flow cytometry. On the technique in general: In flow cytometry, cells or beads pass a laser one at a time.

For experiment [2] the target is unchanged. The experiment in a line: split reporter (BiFC, NanoBiT); Venus BiFC in HeLa cells cotransfected with VN and VC fusion plasmids; thirty-six to forty hours after transfection, fixed; percent BiFC positive cells by flow cytometry and fluorescence microscopy.
In experiment [3] the target is HIV-1 Vpr Δ44 fused to the N- or C-terminal fragment of Venus (UniProt P12520). The experiment is described as follows: BiFC (bimolecular fluorescence complementation), flow cytometry on cells. Particulars: cells cotransfected with VC and VN fusions of the same Vpr mutant; vector control 0.1; parent: 35.7.
The target in experiment [4] is T1, HIV-1 Vpr from NL43 (Vpr^wt) fused to the N- or C-terminal fragment of Venus (HIV-1 (NL43)), P12520.
T1 chain: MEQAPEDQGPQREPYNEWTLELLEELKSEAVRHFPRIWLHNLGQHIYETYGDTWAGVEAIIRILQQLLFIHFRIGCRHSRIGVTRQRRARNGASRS
The experiment is described as follows: split reporter (BiFC, NanoBiT); Venus BiFC in HeLa cells cotransfected with VN and VC fusion plasmids; thirty-six to forty hours after transfection, fixed; percent BiFC positive cells by flow cytometry and fluorescence microscopy. Particulars: remark: other sources report otherwise.

Experiment [5] deals with T1, HIV-1 Vpr from NL43 (Vpr^wt) fused to …. Described as above. Conditions: remark: other sources report otherwise.
Experiment [6] shares this target. The experiment is described as follows: split reporter (BiFC, NanoBiT); Venus BiFC competition: VC-Vpr and VN-Vpr plasmids cotransfected with increasing amounts of untagged Vpr plasmid or empty vector; flow cytometry thirty-six hours after transfection; BiFC positive cells with vector backbone set as 100%. Particulars: remark: other sources report otherwise.

In experiment [1], “HIV-1 Vpr from NL43 (Vpr^wt) fused to the N- or C-terminal fragment of Venus (from UniProt P12520 1-96) (natural protein)” showed a percent BiFC positive cells (with VC-Gag) of 27% and a percent BiFC positive cells (with VN-Gag) of 31%. Moreover, in experiment [2], the percent fluorescent positive cells (venus-C-Gag and venus-N-Vpr^wt) turned out to be 29%; the percent fluorescent positive cells (venus-N-Gag and venus-C-Vpr^wt) was 34%.

For “HIV-1 Gag fused to the N- or C-terminal fragment of Venus (natural protein)”, in experiment [2], the percent BiFC positive cells was 30%.

As to “HIV-1 Vpr E48A fused to the N- or C-terminal fragment of Venus (from UniProt P12520 1-96) (natural protein)”, in experiment [1], the percent BiFC positive cells (with VC-Gag) came to 28% and the percent BiFC positive cells (with VN-Gag) was 29%.

“HIV-1 Vpr from NL43 (Vpr^wt) fused to the N- or C-terminal fragment of Venus (from UniProt P12520) 44del”: the response (% BiFC positive cells) in experiment [3] was 1.

For the molecule “HIV-1 Vpr R80A fused to the N- or C-terminal fragment of Venus (from UniProt P12520 1-96) (natural protein)”, in experiment [1], the percent BiFC positive cells (with VC-Gag) was 27% and the percent BiFC positive cells (with VN-Gag) stood at 33%.

B1: HIV-1 Vpr from NL43 (Vpr^wt) fused to the N- or C-terminal fragment of Venus, P12520 1-96 (natural protein)
chain: T1 chain
For B1, the percent BiFC positive cells was 26% in experiment [4] and 35% in experiment [5].

B2: untagged HIV-1 Vpr (expressed from pVpr), P12520 1-96 (natural protein)
chain: T1 chain
On to B2, for which, in experiment [6], the percent BiFC positive cells left (VC-Vpr with VN-Vpr, vector backbone as 100%) at a ratio of 1:10 is below 20% and the percent reduction of BiFC positive cells (VC-Vpr with VN-Vpr) at a ratio of 1:2.5 stood at 40%.

The values are drawn from article PMC2894018 (2010).
